Test results from US20140328797A1.

Target: HRV-A and B strains tested
Assay: binding to HRV; format not stated in this example

B1: TCN-711 (6893_E11) (antibody, human IgG1, lambda, V domains shown)
VH: QVQLHQWGTGVLKPSGTLSLTCGVYGGSLTDFYWTWIRQSPARGLEWLGEIDRDGATYYNPSLKSRITISIDTSKKQFSLNLRSVTAADRAVYYCARRPMLRGVWGNFRSNWFDPWGQGTQVTVSS
VL: QSVLTQPPSVSAAPGQKVSISCSGSSSNIGYSYVSWYQQVPGSAPKLLIYENNKRPSGIPDRFSASKSGTSATLDITGLQTGDEADYYCGTWDTRLFGGVFGGGTKLTVLG
In the case of B1, the EC50 is reported as 0.007 to 0.07 nM.
